# Values of other authors, collected in publication PMC2739727.
# Experiments:
# [1] = biological target: IL-13Rα1/IL-4Rα (Homo sapiens) (UniProt P78552)
# [2] = biological target: IL-13Rα2 (Homo sapiens) (UniProt Q14627)
# Chain of UniProt Q14627 (Q14627 27-343): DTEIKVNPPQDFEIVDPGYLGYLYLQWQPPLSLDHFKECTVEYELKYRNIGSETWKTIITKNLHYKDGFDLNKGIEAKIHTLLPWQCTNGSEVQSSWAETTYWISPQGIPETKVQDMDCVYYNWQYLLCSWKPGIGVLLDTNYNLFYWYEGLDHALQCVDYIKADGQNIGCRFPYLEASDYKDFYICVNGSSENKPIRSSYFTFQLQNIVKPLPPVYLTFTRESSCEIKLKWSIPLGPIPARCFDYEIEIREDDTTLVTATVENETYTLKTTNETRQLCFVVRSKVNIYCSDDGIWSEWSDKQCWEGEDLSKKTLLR
# Chain of UniProt P78552 (P78552 22-343, chain 1 of 2): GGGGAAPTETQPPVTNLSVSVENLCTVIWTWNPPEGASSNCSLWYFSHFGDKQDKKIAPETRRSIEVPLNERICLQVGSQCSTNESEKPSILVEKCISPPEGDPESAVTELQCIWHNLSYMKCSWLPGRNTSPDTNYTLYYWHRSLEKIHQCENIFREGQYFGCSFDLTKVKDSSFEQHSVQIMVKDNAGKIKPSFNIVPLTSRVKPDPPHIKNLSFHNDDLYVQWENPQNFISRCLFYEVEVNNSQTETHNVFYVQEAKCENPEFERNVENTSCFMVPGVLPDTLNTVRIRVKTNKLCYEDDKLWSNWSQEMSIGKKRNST
# Chain of UniProt P78552 (P24394 26-232, chain 2 of 2, further chain): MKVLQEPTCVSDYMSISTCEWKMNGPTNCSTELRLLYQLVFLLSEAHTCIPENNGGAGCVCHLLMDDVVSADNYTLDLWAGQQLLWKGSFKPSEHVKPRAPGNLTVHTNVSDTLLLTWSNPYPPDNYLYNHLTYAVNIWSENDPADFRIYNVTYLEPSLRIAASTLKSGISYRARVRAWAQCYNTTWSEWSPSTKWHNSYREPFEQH
substance,measurement,setting,value
IL-13 (from UniProt P35225),Kd,[1],0.2 nM
same,Kd,[2],0.2 nM
